How the values were obtained:
[1] = molecular target: T1, Recombinant CYP26A1 (UniProt O43174)
T1 sequence: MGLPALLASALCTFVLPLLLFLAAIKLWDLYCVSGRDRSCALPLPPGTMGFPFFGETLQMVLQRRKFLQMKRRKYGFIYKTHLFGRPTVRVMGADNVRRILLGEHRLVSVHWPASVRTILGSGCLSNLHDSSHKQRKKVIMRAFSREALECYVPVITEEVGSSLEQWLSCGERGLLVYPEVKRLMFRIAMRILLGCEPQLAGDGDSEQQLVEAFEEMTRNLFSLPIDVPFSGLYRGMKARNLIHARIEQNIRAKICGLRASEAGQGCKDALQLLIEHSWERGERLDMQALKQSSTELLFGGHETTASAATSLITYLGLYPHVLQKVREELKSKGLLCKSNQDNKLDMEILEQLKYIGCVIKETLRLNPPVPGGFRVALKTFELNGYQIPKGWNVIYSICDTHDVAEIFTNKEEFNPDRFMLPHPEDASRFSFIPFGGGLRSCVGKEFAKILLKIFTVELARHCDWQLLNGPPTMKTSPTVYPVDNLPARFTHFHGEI

[2] = molecular target: T2, CYP26A1 (Homo sapiens, UniProt O43174); experiment: enzyme inhibition kinetics
T2 chain: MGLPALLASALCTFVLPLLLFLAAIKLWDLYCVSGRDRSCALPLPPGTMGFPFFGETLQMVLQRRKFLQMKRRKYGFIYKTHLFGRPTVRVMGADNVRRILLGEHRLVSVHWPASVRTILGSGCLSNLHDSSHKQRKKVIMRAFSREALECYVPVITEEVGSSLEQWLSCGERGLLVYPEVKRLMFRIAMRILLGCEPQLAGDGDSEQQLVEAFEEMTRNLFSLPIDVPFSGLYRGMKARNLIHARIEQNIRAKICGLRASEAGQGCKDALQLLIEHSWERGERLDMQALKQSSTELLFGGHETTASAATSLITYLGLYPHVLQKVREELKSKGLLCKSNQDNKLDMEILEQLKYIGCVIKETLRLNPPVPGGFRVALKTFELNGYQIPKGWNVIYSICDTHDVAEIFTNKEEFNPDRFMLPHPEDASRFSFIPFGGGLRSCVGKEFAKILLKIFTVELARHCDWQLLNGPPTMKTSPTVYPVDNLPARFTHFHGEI

Cellular retinoic acid binding protein 1 (CRABP1) (from UniProt P29762 1-137) (natural protein)
αKm (affinity of holo-CRABP1, with atRA bound, for CYP26A1), from a global fit of the protein-protein interaction model (Equation 3) to 4-OH-atRA formation velocities [1]: 0.99 nM

B1: CRABP2 (protein)
chain: MPNFSGNWKIIRSENFEELLKVLGVNVMLRKIAVAAASKPAVEIKQEGDTFYIKTSTTVRTTEINFKVGEEFEEQTVDGRPCKSLVKWESENKMVCEQKLLKGEGPKTSWTRELTNDGELILTMTADDVVCTRVYVRE
Ki [2]: 0.53 nM | αKm (affinity of holo-CRABP2, with atRA bound, for CYP26A1), from a global fit of the protein-protein interaction model (Equation 3) to 4-OH-atRA formation velocities [1]: 0.75 nM

Source: article PMC9105409 (2022)
